Measured values: publication PMC8196007, “HSP-90/kinase complexes are stabilized by the large PPIase FKB-6” (Scientific Reports, 2021)

B1: FKB-6 (full-length) (natural protein, C. elegans, UniProt O45418 1-431, looked up)
chain: MSGEKIDITPKKDGGVLKLIKKEGQGVVKPTTGTTVKVHYVGTLENGTKFDSSRDRGDQFSFNLGRGNVIKGWDLGVATMTKGEVAEFTIRSDYGYGDAGSPPKIPGGATLIFEVELFEWSAEDISPDRDGTILRTIIVEGSKNSFPNDTSKVLAHCVGTYQGTEFYNREVNFHIGEGSEEGLPEGVERALRRFQLGEKSKIEIRGHKYTYGNSPPAGSNIPVNATLEFTIFLKEFEKVPATWEMTAEEKLDAAKQAKDRGTMYLQKGNLKLAYNKYKRAEEVLEYEKSTDPEKMAERETILNGAYLNLSLVCSKQNEQLECIKWCDKVLETKPGNVKALYRKATALLTMNEVRDAMKLFEKIVEVEPENKAAAQQIIVCRNTIREQNERDKKRFKNLFAKISTEEDKPTNTVEDEDEIVASTSGSSTSNA
notes: FKB-6, C. elegans large PPIase, homolog of human Fkbp51/Fkbp52; also called large PPIase FKB-6; source: E. coli BL21 (DE3) cod+, purified (HisTrap, gel filtration)

Assays:
[1] = target: B1; test: native MS; LILBID-MS of the BS3-crosslinked sample and of non-crosslinked mixtures, sB-Raf:CDC-37:FKB-6:HSP-90 = 1:1:1:1 or as indicated; 25 mM Tris, 20 mM KCl, pH 7.5; conditions: both partners purified
[2] = target: T1, nematode HSP-90 (C. elegans, UniProt Q18688 1-702); test: as above; conditions: both partners purified
T1 construct: HSP-90, C. elegans (nematode) Hsp90; also called HSP-90 dimer; source: E. coli BL21 (DE3) cod+, purified (HisTrap, gel filtration)

| binding result [1] | binding result [2] | Binder |
| --- | --- | --- |
| binds | binds | nematode CDC-37 (natural protein, C. elegans, UniProt O02108 1-370, looked up, CDC-37, C. elegans (nematode) Hsp90 cochaperone; source: E. coli BL21 (DE3) cod+, purified (HisTrap, gel filtration)) MPIDYSKWKDIEVSDDEDDTHPNIDTPSLFRWRHQARLERMAEKKMEQEKIDKEKGTTSKKMEELEKKLAAADVTDKSDIQKQIDEVKAQEEAWRKKEAELEEKERLEPWNVDTIGHEAFSTSRINKITEKKPQAPKTDEEDTHAMSTFFETHESLLEKMAVLKNGAKSTELFLAEHPHMASEYTANWLTIEALNAAIDFNEEKMKTMAEQCIIIQYLLELSKSLNAVATNTTVQKQFFKKFEAAEPVYMKHYQDEVKAFEDRLRTRAQTKRDAAMEEAEAEEKAERMKSAPGGIDPQEVFEQLPEEMRKCFEAHDIEALKGVAQKMDEEVFKYHFDRCIASGLWVPGKADDDDDDEEAAPAEEEPTTSS |
|  | binds | B1 |
